Data taken from patent US9063157B2, “Method for evaluating skin condition using squamous cell carcinoma antigen as marker” (Shiseido Company, Ltd., priority 2005, dated 2015).
“Also recorded” adds a separate entry of the source. Read-outs that look alike come from different tables or passages of the source. * marks the point of attachment. Cbz = O=C(OCc1ccccc1)*; CH2F = FC*

T1: purified caspase-14 (Homo sapiens, UniProt P31944)
T1 construct: human caspase-14 was purified as a heterodimer comprising a large subunit (17 KDa) and a small subunit (11 KDa); from tissue; host or cells: human heel stratum corneum (cornified cells)
T1 sequence (P31944 6-146 limits assumed): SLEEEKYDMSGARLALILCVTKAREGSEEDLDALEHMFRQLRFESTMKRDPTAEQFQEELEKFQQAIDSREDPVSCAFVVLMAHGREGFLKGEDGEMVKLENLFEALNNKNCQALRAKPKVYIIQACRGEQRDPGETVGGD
T1 sequence (P31944 153-242 limits assumed): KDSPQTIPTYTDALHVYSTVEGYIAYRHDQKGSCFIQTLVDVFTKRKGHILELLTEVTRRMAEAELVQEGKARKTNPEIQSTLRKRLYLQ

T2: caspase-3 (Homo sapiens, UniProt P42574)
T2 construct: When recombinant active caspases were incubated together with SCCA-1; purchased BIOMOL Research Labs, Inc. (Plymouth Meeting, PA)
T2 sequence (P42574 29-175 limits assumed): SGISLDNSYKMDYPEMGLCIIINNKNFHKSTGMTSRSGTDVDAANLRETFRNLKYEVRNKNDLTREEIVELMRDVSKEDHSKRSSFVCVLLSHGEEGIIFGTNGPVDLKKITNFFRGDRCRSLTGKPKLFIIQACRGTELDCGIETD
T2 sequence (P42574 176-277 limits assumed): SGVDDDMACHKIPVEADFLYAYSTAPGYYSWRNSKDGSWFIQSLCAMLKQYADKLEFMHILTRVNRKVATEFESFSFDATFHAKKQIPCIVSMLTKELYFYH

T3: caspase-14 (Homo sapiens, UniProt P31944)
T3 construct: human caspase-14 was purified as a heterodimer comprising a large subunit (17 KDa) and a small subunit (11 KDa); from tissue; host or cells: human heel stratum corneum (cornified cells)
T3 sequence (P31944 6-146 limits assumed): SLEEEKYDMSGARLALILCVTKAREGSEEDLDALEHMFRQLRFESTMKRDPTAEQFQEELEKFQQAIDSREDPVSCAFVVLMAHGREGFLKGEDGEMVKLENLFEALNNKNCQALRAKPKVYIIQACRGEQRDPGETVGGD
T3 sequence (P31944 153-242 limits assumed): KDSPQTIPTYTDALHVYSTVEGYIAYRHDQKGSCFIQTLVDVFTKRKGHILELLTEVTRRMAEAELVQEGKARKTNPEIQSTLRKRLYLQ


Assays:
[1] = molecular target: T1, purified caspase-14; assay: Caspase-14 activity inhibitor assay with WEHD-MCA substrate; type: biochemical
Description: Currently, 15 types of human caspases are known, but caspase-14 was incubated together with various peptide inhibitors for caspases (YVAD (SEQ ID NO:3), VDVAD (SEQ ID NO:4), DEVD (SEQ ID NO:5), VEID (SEQ ID NO:6), IETD (SEQ ID NO:7), LEHD (SEQ ID NO:8), DNLD (SEQ ID NO:9)), class-specific inhibitors for cysteine proteinases (IAA) or serine proteinases (AEBSF). WEHD-MCA (SEQ ID NO:10) was used as substrate in the presence of 1.3 M sodium citrate and 5 mM DTT, and the residual enzyme activity was measured. The tested enzyme concentrations were 5, 2.5 and 1.25 μM. The values were represented as mean values for multiple assays.
Caspase-14 activity was assayed by the method described in Mikolajczyk J. et al., Biochemistry 43, 10560-9 (2004), with some modifications, using Ac-WEHD-MCA as substrate. Briefly, an assay mixture was prepared from 45 μL of 0.1 M HEPES buffering solution (pH 7.5), 0.06 M NaCl, 0.01% CHAPS, 5 mM DTT, 1.3 M sodium citrate and 10 μM WEHD-MCA (all final concentrations). After adding enzyme sample (5 μl) to the mixture, it was incubated for 10-30 minutes. The reaction was suspended by addition of 150 μl of 0.1 M monochloroacetic acid, and Fluoroskan Ascent FL (Thermo Electron Co., Wolsam, Mass.) was used for measurement with a 355 nm excitation wavelength and a 460 nm luminous wavelength. For the inhibitor assay, caspase-14 and peptide inhibitor were incubated at room temperature for 15 minutes in assay buffer, and 5 μl of 100 μM WEHD-MCA was added to start the assay.
Human cornified cells (about 14 g) scraped from healthy human heel were extracted with 0.1 M Tris-HC1 (pH 8.0) containing 0.14 M NaCI, using a glass homogenizer. After centrifuging at 15,000g for 60 minutes, the supernatant was collected. It was concentrated with Amicon Ultra (Millipore, MA) and desalted with a Fast Desalting Column HR10/10 (Amersham Biosciences), and then the crude product was coated onto a HiPrep 16/10 Q XL column. The column was cleaned with 20 mM Tris-HCI (pH 8.0) and eluted with a 0-1 M linear NaCl gradient. The fraction was tracked by Western blotting using caspase-14antibody (H-99) (Santa Cruz Biotechnology, CA) and h14D^146 antibody. Each fraction was subjected to assay of hydrolytic activity on Ac Trp-Glu-His-Asp-methyl-coumarinamide (WEND-MCA) (Peptide Institute, Inc., Osaka, Japan). The positive fraction was applied to a Mono Q column equilibrated with the same buffering solution, and eluted with a NaCl gradient of up to 1M. The caspase-14 fraction was further separated by Mono S positive cation exchange chromatography. The column was equilibrated with 20mM acetic acid buffer (pH 4.5) and eluted with a 0-1 M NaCl gradient. The positive fraction was concentrated and applied to a chromatofocusing Mono P column equilibrated with 25 mM ethanolamine (pH 8.3). Next, elution was performed while forming a pH gradient from pH 8 to 5 using 46ml of Polybuffer (pH 5.0). Caspase-14 was subjected to final purification using Superdex 75 gel chromatography. The protein concentration was determined using a BioRad Protein Assay Kit (BioRad Lab, Hercules, CA).

[2] = system: skin equivalent models; settings: skin equivalent models (Weil et al., 1999); cited from earlier work
[3] = molecular target: T2, caspase-3; assay: Caspase-3 activity with synthetic substrate DEVD-MCA or natural substrate ICAD; type: biochemical
From the text: The enzymatic properties of purified caspase-14 were highly unique. Purified caspase-14exhibited relatively wide inhibitor sensitivity with respect to known caspase inhibitors. […] It was shown, for the first time, that SCCA-1 is an endogenous inhibitor of caspase-14. The property most specific to SCCA-1 is its high specificity for caspase-14. The other members, caspases 1-10, had never been reported as being affected by SCCA-1. […] This behavior is in contrast to Crm A. […] is also known to suppress several caspases including caspase-1 and caspase-8 (Gagliardini V. et al., Science 263: 826-8 (1994)). XIAP is known to inhibit caspase-3, -7, and -9 (Srinivasula S.M. et al., Nature 410: 112-6 (2001)). Since the anti-apoptotic protein p35 inhibits caspase-1, -3, -6, -7, -8, and -10, it is believed to have a wider spectrum.

[4] = molecular target: T3, caspase-14; assay: ICAD cleavage by purified caspase-14, Western blotting; type: biochemical; settings: for inhibition of ICAD decomposition by caspase-14: prolonged incubation (up to 16 hours), kosmotropic salt
From the text: Identified were 33 KDa and 27 KDa cleavage products. […] ICAD decomposition was observed only in the presence of a kosmotropic salt.
For Western blotting and immunohistochemical analysis of ICAD, anti-ICAD IgG (FL331, Santa Cruz Biotechnology) and DFF45/ICAD Ab-2 (NeoMarkers, Fremont, Calif.) were used.
The protein was separated by SDS-polyacrylamide gel electrophoresis with a 5-20% gradient gel. After electrophoresis, the protein was transferred onto a polyvinylidene difluoride membrane (Immobilon-P, Millipore, Bedford, Mass.) and incubated together with anti-caspase-14 antibody including H-99, h14D^146 or C20. Peroxidase-labeled anti-rabbit IgG (Sigma) or anti-goat IgG was used as secondary antibody and ECL-Plus (Amersham) was used as immunoreactive protein for visualization by chemiluminescence.
The present inventors tested the effect of caspase-14 on ICAD, in the course of searching for natural substrates of caspase-14, because disappearance of nuclei is a very important event for final differentiation.

[5] = system: caspases 1-10; assay: Recombinant active caspases incubated with SCCA-1; type: biochemical
From the text: Benzyloxycarbonyl (Z)-YVAD-FMK, Z-YVAD-FMK, Z VDVAD-FMK, Z-DEVD-FMK, Z-VEID-FMK, Z-IETD-FMK, Z-LEHD-FMK, and Z-VAD-FMK were purchased from BioVision (Mountain View, CA). Recombinant caspases 1-10 were obtained from BIOMOL Research Labs, Inc. (Plymouth Meeting, PA).
Although SCCA-1 belongs to the serpin superfamily, it inhibits cysteine proteinases such as papain and cathepsin L (Takeda A. et al., Biol. Chem. 383, 1231-6 (2002)). […] Kosmotropic conditions were used for caspase-14. […] The enzyme activity was not recovered even with extended incubation.

[6] = WEHD-MCA substrate, 1.3 M sodium citrate, 5 mM DTT, tested concentrations 5, 2.5 and 1.25 μM

Molecule | inhibiting effect against caspase-14 activity (residual enzyme activity) [1, 6] | other results
IETD-FMK: caspase-8 inhibitor (Cbz-IETD-CH2F; SMILES CC[C@H](C)[C@H](NC(=O)OCc1ccccc1)C(=O)N[C@@H](CCC(=O)O)C(=O)N[C@H](C(=O)N[C@@H](CC(=O)O)C(=O)CF)[C@@H](C)O) | exhibited sensitivity | –
NCCc1ccc(S(=O)(=O)F)cc1 [AEBSF, 4-(2-aminoethyl)benzenesulfonyl fluoride] | no significant inhibiting effect | –
O=C(O)CI [IAA, iodoacetic acid] | – | inhibiting effect against caspase-14 activity (residual enzyme activity) [1]: no significant inhibiting effect
VAD-FMK: pan-caspase inhibitor (Cbz-Val-Ala-Asp-CH2F) | inhibited caspase-14 activity at about the same level as VAD-FMK; also recorded: one of the most powerful caspase-14 inhibitors | inhibition of disappearance of nuclei [2]: inhibited disappearance of nuclei
VDVAD-FMK: caspase-2 inhibitor (Cbz-VDVAD-CH2F; SMILES CC(C)[C@H](NC(=O)OCc1ccccc1)C(=O)N[C@@H](CC(=O)O)C(=O)N[C@H](C(=O)N[C@@H](C)C(=O)N[C@@H](CC(=O)O)C(=O)CF)C(C)C) | exhibited sensitivity | –
LEHD-FMK: caspase-9 inhibitor (Cbz-LEHD-CH2F; SMILES CC(C)C[C@H](NC(=O)OCc1ccccc1)C(=O)N[C@@H](CCC(=O)O)C(=O)N[C@@H](Cc1c[nH]cn1)C(=O)N[C@@H](CC(=O)O)C(=O)CF) | exhibited sensitivity | –
Benzyloxycarbonyl (Z)-YVAD-FMK | most powerful inhibiting effect; also recorded: strongest inhibition | –
VEID-FMK: peptide inhibitor for caspases (Cbz-VEID-CH2F; SMILES CC[C@H](C)[C@H](NC(=O)[C@H](CCC(=O)O)NC(=O)[C@@H](NC(=O)OCc1ccccc1)C(C)C)C(=O)N[C@@H](CC(=O)O)C(=O)CF) | virtually no effect | –
DEVD-FMK: caspase-3 inhibitor | exhibited sensitivity | –
SCCA-1: recombinant squamous cell carcinoma antigen 1, an ov-serpin family papain-like cysteine protease inhibitor (protein) MNSLSEANTKFMFDLFQQFRKSKENNIFYSPISITSALGMVLLGAKDNTAQQIKKVLHFDQVTENTTGKAATYHVDRSGNVHHQFQKLLTEFNKSTDAYELKIANKLFGEKTYLFLQEYLDAIKKFYQTSVESVDFANAPEESRKKINSWVESQTNEKIKNLIPEGNIGSNTTLVLVNAIYFKGQWEKKFNKEDTKEEKFWPNKNTYKSIQMMRQYTSFHFASLEDVQAKVLEIPYKGKDLSMIVLLPNEIDGLQKLEEKLTAEKLMEWTSLQNMRETRVDLHLPRFKVEESYDLKDTLRTMGMVDIFNGDADLSGMTGSRGLVLSGVLHKAFVEVTEEGAEAAAATAVVGFGSSPTSTNEEFHCNHPFLFFIRQNKTNSILFYGRFSSP | inhibited caspase-14 activity against WEHD-MCA in a dose-dependent manner | inhibition of caspase-3 activity ([3]; natural substrate ICAD): did not inhibit; inhibition of caspase-3 activity ([3]; synthetic substrate DEVD-MCA): did not inhibit; inhibition of ICAD cleavage by caspase-14 ([4]; 10 μM SCCA-1, in presence of kosmotropic salt): completely inhibited; inhibition of ICAD decomposition by caspase-14 [4]: inhibition of ICAD decomposition; inhibition of ICAD decomposition by caspase-14 ([4]; listed as SCCA 1): inhibited ICAD decomposition by caspase-14; effect on enzyme activity of caspases 1-10 [5]: none of the caspase members (1-10) were affected in their enzyme activity
